Laboratory results reported in paper PMC13262181 (Structure (London, England : 1993), 2025).
Values belong to the molecule of their own block, whether it stands above or below them. Ends that are not written are not given here. Ahx = NCCCCCC(=O)O

Key:
[1] = Solubility of synthesized peptides; type: physicochemical; conditions: when synthesized and experimentally tested
[2] = biological target: LVEAVY tracer (synthetic construct); conditions: cited from earlier work
Cdc37 = biological target: T1, Cdc37 (Homo sapiens, UniProt Q16543); assay: 19F T2 filter NMR binding to Cdc37; conditions: 19F-peptides 20 μM, increasing Cdc37 (0.5, 1, 2, 4 μM)
T1 sequence (Q16543 1-378): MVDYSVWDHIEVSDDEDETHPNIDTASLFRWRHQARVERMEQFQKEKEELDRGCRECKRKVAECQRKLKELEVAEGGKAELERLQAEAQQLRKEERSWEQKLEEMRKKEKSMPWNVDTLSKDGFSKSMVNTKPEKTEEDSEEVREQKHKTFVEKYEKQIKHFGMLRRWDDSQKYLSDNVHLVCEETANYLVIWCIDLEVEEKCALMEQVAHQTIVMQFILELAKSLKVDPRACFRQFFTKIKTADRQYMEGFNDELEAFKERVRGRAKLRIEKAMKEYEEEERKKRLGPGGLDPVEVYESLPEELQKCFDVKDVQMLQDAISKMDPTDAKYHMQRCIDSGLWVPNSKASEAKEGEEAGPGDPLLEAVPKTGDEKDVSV

[3] = biological target: T2, Hsc70 SBD construct (residues 395-509) (human, UniProt P11142 395-509); assay: fluorescence polarisation
T2 sequence (P11142 395-509): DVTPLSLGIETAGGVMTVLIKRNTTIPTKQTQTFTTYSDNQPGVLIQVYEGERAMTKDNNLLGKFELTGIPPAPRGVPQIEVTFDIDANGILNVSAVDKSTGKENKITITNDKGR

[4] = biological target: T2, Hsc70 SBD construct (residues 395-509); assay: fluorescence polarisation; remark: listed apart in the source
[5] = biological target: T2, Hsc70 SBD construct (residues 395-509); assay: fluorescence polarisation; remark: listed apart in the source

Sequence of Hsc70 SBD (P11142 394-509): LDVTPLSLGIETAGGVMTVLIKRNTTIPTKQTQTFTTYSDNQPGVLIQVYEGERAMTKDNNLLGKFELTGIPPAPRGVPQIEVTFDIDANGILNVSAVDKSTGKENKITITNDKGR

Molecule: Hsc70 SBD (from UniProt P11142)
- Kd [2]: 100 nM

Molecule: FATSRTDREGPN [Cdk4-1]
- solubility [1]: limited solubility

Molecule: PGQLMAISVGPTTLFV [Cdk4-2-scr]
- binding to Cdc37, 19F NMR titration (Cdc37): no interaction was observed

Results, then the molecule that gave them:

- solubility [1]: limited solubility
Molecule: F-GVAEIGVGAYG [Cdk4-3]

- Kd [3]: 29 nM
Molecule: {FAM-Ahx}-LPISTGGFQMALTPVV-OH [FAM-Ahx-LPISTGGFQMALTPVV-OH]

- binding result [4]: binds
Molecule: Ac-TGGFQMAAT [Ac-… with the Leu residue mutated to alanine]

- binding result [4]: binds
Molecule: Ac-TGGFQAALT [Ac-… with the Met residue mutated to alanine]

- Ki [5]: > 100000 nM
Molecule: Ac-GGFQMALTPVV-OH [unlabeled Cdk4-4]
